Columns and labels:
[1] = target: MOSP^C, C-terminal domain of the major outer sheath protein (recombinant, refolded) (Treponema denticola); assay: negative-stain TEM of nanodiscs; MOSP^C refolded in DDM and incorporated into large MSP1E3D1 (E3D1) DMPC nanodiscs; SEC peak fractions, uranyl formate stain, averaged images
[2] = target: MOSP^C, C-terminal domain of the major outer sheath protein (recombinant, refolded) (Treponema denticola); assay: SEC + other: negative-stain TEM of nanodiscs; MOSP^C incorporated into small D7 DMPC nanodiscs, S200 column, Tris-NaCl buffer pH 7.5; peaks examined by SDS-PAGE and TEM
[3] = target: major outer sheath protein, native outer membrane conformer (Treponema denticola ATCC 35405 (endogenous)); assay: SDS-PAGE without boiling, immunoblot; 2% DDM-solubilized pellet of sonicated T. denticola, run with and without boiling, anti-MOSP^Fl; TX-114 phase partitioning of the same material
[4] = target: major outer sheath protein, native outer membrane conformer (Treponema denticola ATCC 35405 (endogenous)); assay: SDS-PAGE without boiling, immunoblot; NP-40 supernatant (OM conformer) and TX-114 aqueous phase (periplasmic conformer) of T. denticola in Laemmli buffer, with and without boiling; antisera to MOSP^Fl, PrtP, PrcA1, PrcA2, PrcB
[5] = target: MOSP expressed in E. coli with a PelB signal sequence (Treponema denticola); assay: native gel or EMSA; BN-PAGE and immunoblot of the 2% DDM extract of the outer membrane fraction of E. coli expressing PelB-MOSP
[6] = target: major outer sheath protein, native periplasmic conformer (Treponema denticola ATCC 35405 (endogenous)); assay: SDS-PAGE without boiling, immunoblot; 2% DDM-solubilized pellet of sonicated T. denticola, run with and without boiling, anti-MOSP^Fl; TX-114 phase partitioning of the same material
[7] = target: major outer sheath protein, native periplasmic conformer (Treponema denticola ATCC 35405 (endogenous)); assay: SDS-PAGE without boiling, immunoblot; NP-40 supernatant (OM conformer) and TX-114 aqueous phase (periplasmic conformer) of T. denticola in Laemmli buffer, with and without boiling; antisera to MOSP^Fl, PrtP, PrcA1, PrcA2, PrcB

Substance: MOSP^C, C-terminal domain of the major outer sheath protein (recombinant, refolded) (domain or fragment)
- stoichiometry N [1]: 3
- stoichiometry N [2]: 3

Substance: major outer sheath protein, native outer membrane conformer (natural protein)
- stoichiometry N [3]: 3
- stoichiometry N [4]: 3

Substance: MOSP expressed in E. coli with a PelB signal sequence (natural protein)
- stoichiometry N [5]: 3

Substance: major outer sheath protein, native periplasmic conformer (natural protein)
- stoichiometry N [6]: 3
- stoichiometry N [7]: 3

— PMC5643300
